Like-named read-outs stand apart in the source and are kept apart here.
What was measured:
Stability in rat plasma = assay type: in vitro ADME; settings: 37° C., percent area of the initial compound at t0 (HPLC), read-out: Stability rat plasma after 4 h
Procedure: (§1) 1 mg of the respective test compound of is dissolved in a mixture of 1.5 mL dimethylsulfoxide and 1 ml water. For complete dissolution, the HPLC vial is shaken and treated with an ultrasound. 500 μl of this solution is added to 0.5 mL of plasma with vortexing at a temperature of 37° C. Aliquots (10 μL each) are taken at respective time points and analyzed by HPLC to determine the amount of the test compound. All data is given as percent area of the initial compound at to.

[1] = Stability in human plasma; assay type: in vitro ADME; settings: 37° C., percent area of the initial compound at t0 (HPLC), read-out: Stability human plasma after 4 h
Procedure: as §1

Stability in buffer = assay type: physicochemical; settings: HPLC peak area in percentage
Procedure: 0.15 mg of the test compound are solved in 0.1 ml dimethylsulfoxide and 0.4 ml acetonitrile. For complete dissolution the HPLC vial with the sample solution is shaken and sonicated. Then 1.0 ml of the respective buffer solution is added, and the sample is vortexed. The sample solution is analysed by HPLC to determine the amount of the test compound and up to two byproducts at a particular time over a period of 24 h at 37° C. to values result from a sample immediately taken after vortexing with buffer at RT. The peak areas (in percentage) are used for quantification.

[2] = Pharmacokinetics in rat after intravenous administration; assay type: in vivo; settings: plasma, male rats, intravenous bolus 0.5 mg/kg; for clearance: read-out: CL plasma; for Vd: read-out: VSS
Procedure: Male rats (n=3) were given an intravenous 0.5 mg/kg bolus dose of test article dissolved in plasma with 1% DMSO and 2% ethanol. Serial blood samples were collected up to 24 hours post-dose. Plasma was harvested from blood samples and stored frozen until sample analysis. Test article plasma concentrations were analyzed by LC/MS/MS. Pharmacokinetic parameters were calculated using non-compartmental analysis.

human Elastase = target: T1, human Elastase (Homo sapiens, UniProt P08246); assay: Elastase cleavability test; assay type: biochemical; settings: 5 μM test compound, 1 h at 37° C.
T1 sequence (P08246 30-267): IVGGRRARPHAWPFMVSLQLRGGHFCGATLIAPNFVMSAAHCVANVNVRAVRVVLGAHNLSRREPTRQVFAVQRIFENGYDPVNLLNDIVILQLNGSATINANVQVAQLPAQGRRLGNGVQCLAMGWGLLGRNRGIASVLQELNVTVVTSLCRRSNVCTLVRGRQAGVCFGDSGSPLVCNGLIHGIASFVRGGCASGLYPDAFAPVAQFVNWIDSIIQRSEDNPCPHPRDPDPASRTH
Procedure: The test compound was added to buffer (150 mM NaCl, 10 mM CaCl2, 0.05% BSA) to a final concentration of 5 μM (0.5% DMSO). The reaction was started by adding different concentrations of human Elastase (0, 20, 40, 60 nM) to the reaction vials. After incubation for 1 h at 37° C., the enzymatic reaction was stopped by precipitation in 50% ACN. Subsequently, the samples were subjected to HPLC-MS analysis to determine the concentration of test compound and of its metabolite.

HT29 = assay: Cytotoxicity in vitro in the presence and absence of elastase (MTT assay); assay type: cell-based; settings: HT29 cells, 72 h incubation
Procedure, shortened: (§2)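 Readout: MTT formazan absorbance at 570 nm after 4 h MTT and overnight detergent lysis. Compound exposure was 72 h at 37 °C, 10^−5–10^−13 M, in parallel sets with or without 10 nM elastase.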

NCI-H292 = assay: as above; assay type: cell-based; settings: NCI-H292 cells, 72 h incubation
Procedure, shortened: as §2

SUM149PT = assay: as above; assay type: cell-based; settings: SUM149PT cells, 72 h incubation
Procedure, shortened: as §2

786-O = assay: as above; assay type: cell-based; settings: 786-O cells, 72 h incubation
Procedure, shortened: as §2

[3] = buffer pH 4, 37° C., read-out: Stability buffer pH 4 after 24 h
[4] = buffer pH 7.4, 37° C., read-out: Stability buffer pH 7.4 after 24 h
[5] = compound alone, read-out: IC50 without neutrophil elastase
[6] = with 10 nM elastase (NE), read-out: IC50 with neutrophil elastase

Compound	remaining at 4 h, 0.2 mg/mL (Stability in rat plasma) [%]	remaining at 4 h, 0.2 mg/mL [1] [%]	remaining at 24 h, 0.1 mg/mL (Stability in buffer; [3]) [%]	remaining at 24 h, 0.1 mg/mL (Stability in buffer; [4]) [%]	AUC [2] [ng·h/mL]	half-life [2] [min]	clearance [2] [mL/min/kg]	Vd [2] [L/kg]	Payload release after 1 h (human Elastase; Elastase Concentration 0 nM)	Payload release after 1 h (human Elastase; Elastase Concentration 20 nM)	IC50 (HT29; [5]) [nM]	IC50 (HT29; [6]) [nM]	IC50 (NCI-H292; [5]) [nM]	IC50 (NCI-H292; [6]) [nM]	IC50 (SUM149PT; [5]) [nM]	IC50 (SUM149PT; [6]) [nM]	IC50 (786-O; [5]) [nM]	IC50 (786-O; [6]) [nM]	Stability buffer pH 7.4 after 24 h (Stability in buffer; buffer pH 7.4, 37° C.) [%]
CCCNC(=O)Nc1cccc(S(=O)(=O)Nc2cccc([C@@H](CC(=O)O)NC(=O)Nc3ccc(NC(=O)NCCOCCOCCOCCC(=O)N[C@@H](CC(=O)O)C(=O)N4CCC[C@H]4C(=O)N[C@H](C(=O)O[C@@H](c4ccccc4)[C@@H](C)NC(=O)[C@H](C)C(OC)[C@@H]4CCCN4C(=O)CC(OC)[C@H]([C@@H](C)CC)N(C)C(=O)[C@@H](NC(=O)[C@@H](NC)C(C)C)C(C)C)C(C)C)cc3)c2)c1 (some centres unmarked) [Compound 13]	100	100	92	100	1000 to 10000	60 to 300	0.5 to 5	0.1 to 0.3	D (D = <1%)	A (A = >70%)	–	–	–	–	–	–	–	–	–
CCCNC(=O)Nc1cccc(S(=O)(=O)Nc2cccc([C@@H](CC(=O)O)NC(=O)Nc3ccc(NC(=O)NCCOCCOCCOCCC(=O)N[C@@H](CC(=O)O)C(=O)N4CCC[C@H]4C(=O)N[C@H](C(=O)N[C@@H](CCN(C(=O)CO)[C@@H](c4cc(-c5cc(F)ccc5F)cn4Cc4ccccc4)C(C)(C)C)C(=O)NC)C(C)C)cc3)c2)c1 [Compound 26, disodium 1-[(2S)-2-(carboxylatomethyl)-17-{4-[({(1R)-2-carboxylato-1-[3-({3-[(propylcarbamoyl)amino]benzene-1-sulfonyl}amino)phenyl]ethyl}carbamoyl)amino]anilino}-4,17-dioxo-7,10,13-trioxa-3,16-diazaheptadecanan-1-oyl]-L-prolyl-N-[(2S)-4-[{(1R)-1-[1-benzyl-4-(2,5-difluorophenyl)-1H-pyrrol-2-yl]-2,2-dimethylpropyl}(hydroxyacetyl)amino]-1-(methylamino)-1-oxobutan-2-yl]-L-valinamide]	100	100	94	100	1000 to 10000	< 30	0.5 to 5	0.01 to 0.1	D (D = <1%)	B (B = >20%)	> 1000	1 to 9.9	> 1000	1 to 9.9	> 1000	0.1 to 1	–	–	–
CCCNC(=O)Nc1cccc(S(=O)(=O)Nc2cccc([C@@H](CC(=O)O)NC(=O)Nc3ccc(NC(=O)NCCOCCOCCOCCC(=O)N[C@@H](CC(N)=O)C(=O)N4CCC[C@H]4C(=O)N[C@H](C(=O)NCCCN(C(=O)CO)[C@@H](c4cc(-c5cc(F)ccc5F)cn4Cc4ccccc4)C(C)(C)C)C(C)C)cc3)c2)c1 [Compound 17, sodium N^2-(14-{4-[({(1R)-2-carboxylato-1-[3-({3-[(propylcarbamoyl)amino]benzene-1-sulfonyl}amino)phenyl]ethyl}carbamoyl)amino]anilino}-14-oxo-4,7,10-trioxa-13-azatetradecanan-1-oyl)-L-asparaginyl-L-prolyl-N-{3-[{(1R)-1-[1-benzyl-4-(2,5-difluorophenyl)-1H-pyrrol-2-yl]-2,2-dimethylpropyl}(hydroxyacetyl)amino]propyl}-L-valinamide]	100	100	100	–	1000 to 10000	300 to 600	0.5 to 5	0.3 to 0.9	D (D = <1%)	C (C = >1%)	> 1000	1 to 9.9	100 to 999	1 to 9.9	100 to 999	0.1 to 1	> 1000	1 to 9.9	100

Source: US20260183405A1, “SMALL MOLECULE-DRUG-CONJUGATES CLEAVABLE IN A TUMOR MICROENVIRONMENT” (priority 2022, published 2026)
